Consider 18 molecules from patent publication US20140134183A1 (CELL MEDICA SWITZERLAND, published 2014).

Assay [1] has as its target T1, recombinant human IL-1 beta (human, UniProt P01584 117-269). As to the kind of experiment: cell-based or functional assay.
Assay [2] has as its target T1, recombinant human IL-1 beta. Nature of the assay: ELISA, cleared E. coli lysate on coated rhIL-1 beta. As for the experimental part: The resulting scFv mutants are expressed in 96-well format in 1 ml cultures in E. coli BL21 (DE3) (Novagen, USA, cat. no. 69450-3). […] Cells were lysed in lysis buffer (1 mM EDTA, 0.1 mg/ml lysozyme, PBS pH 7.2) in a 96-well format by freezing and subsequent thawing. Derived crude extracts were cleared by centrifugation. Supernatants were added to wells of a microtiterplate coated with 50 ng/ml of rhIL-1 beta (Peprotech) per well. After washing, bound scFvs are detected by ProteinL-HRP and binding to rhIL-1 beta quantified by BM Blue POD Substrate (Roche Applied Science).
On the technique in general: An ELISA detects its analyte on a solid surface through an enzyme-linked reagent.

B1: DLX2464 (scFv)
scFv: EIVMTQSPSTLSASVGDRVIITCQASQSIDNWLSWYQQKPGKAPKLLIYRASTLASGVPSRFSGSGSGAEFTLTISSLQPDDFATYYCQNTGGGVSIAFGQGTKLTVLGGGGGSGGGGSGGGGSGGGGSEVQLVESGGGLVQPGGSLRLSCTASGFSLSSAAMAWVRQAPGKGLEWVGIIYDSASTYYASWAKGRFTISRDTSKNTVYLQMNSLRAEDTAVYYCARERQIFSGDMAGWGQGTLVTVSS
Turning to B1, the “IC50 of IL-1 beta-induced IL-6 release from human dermal fibroblasts” value in assay [1] is 4 pM.

B2: DLX2465 (scFv)
scFv: EIVMTQSPSTLSASVGDRVIITCQASQSIDNWLSWYQQKPGKAPKLLIYRASTLASGVPSRFSGSGSGAEFTLTISSLQPDDFATYYCQNTGGGVSIAFGQGTKLTVLGGGGGSGGGGSGGGGSGGGGSEVQLVESGGGLVQPGGSLRLSCTASGFSLSSAAMAWVRQAPGKGLEWVGIIYDSASTYYASWAKGRFTISRDTSKNTVYLQMNSLRAEDTAVYYCARERNIFSGDMDLWGQGTLVTVSS
B2: the “IC50 of IL-1 beta-induced IL-6 release from human dermal fibroblasts” value in assay [1] is 4 pM.

B3: DLX2684 (scFv)
scFv: EIVMTQSPSTLSASVGDRVTITCQASQSISSWLSWYQQKPGKAPKLLIYKASTLASGVPSRFSGSGSGTEFTLTISSLQPDDFATYYCQNAGGGVSIAFGQGTKLTVLGGGGGSGGGGSGGGGSGGGGSEVQLVESGGGNVQPGGSLRLSCTASGFSLSDAAMAWVRQAPGKGLEWVGIIYDSASTFYASWAKGRFTISRDNSKNTLYLQMNSLRAEDTATYYCARERNIFSGDMALWGQGTTVTVSS
notes: tested as cleared E. coli lysate; also called DLX2543_2530
Consider B3, for which, in assay [2], the binding result was “binds”.

B4: DLX2690 (scFv)
scFv: ADIVMTQSPSTLSASVGDRVTITCQASQSISSYLSWYQQKPGKAPKLLIYKASTLASGVPSRFSGSGSGTDFTLTISSLQPEDFATYYCQNAGGGINIAFGQGTKVEIKRGGGGSGGGGSGGGGSGGGGSEVQLVESGGGLVQPGGSLRLSCTVSGFSLSSYAMSWVRQAPGKGLEWIGIIYDSASTYYASWAKGRFTISKDTSKNTLYLQMNSLRAEDTAVYFCARERQIFSGDMDGWGQGTTVTVSS
notes: tested as cleared E. coli lysate; also called DLX2544_2548
Turning to B4, the binding result in assay [2] is given as “binds”.

B5: DLX2689 (scFv)
scFv: ADIVMTQSPSTLSASVGDRVTITCQASQSISSYLSWYQQKPGKAPKLLIYKASTLASGVPSRFSGSGSGTDFTLTISSLQPEDFATYYCQNAGGGINIAFGQGTKVEIKRGGGGSGGGGSGGGGSGGGGSEVQLVESGGGNVQPGGSLRLSCTASGFSLSNSAMAWVRQAPGKGLEWVGIIYDSASTYYASWAKGRFTISRDNSKNTVYLQMNSLRAEDTATYYCARERAIFSGDFALWGQGTLVTVSS
notes: tested as cleared E. coli lysate; also called DLX2544_2531
For B5, the binding result in assay [2] is “binds”.

B6: DLX2677 (scFv)
scFv: EIVMTQSPSTLSASVGDRVTITCQASQSIGNWLAWYQQKPGKAPKLLIYQASNLASGVPSRFSGSGSGTDFTLTISSLQPDDFATYYCQNAGGATTIAFGQGTKLTVLGGGGGSGGGGSGGGGSGGGGSEVQLVESGGGNVQPGGSLRLSCTASGFSLSNSAMAWVRQAPGKGLEWVGIIYDSASTYYASWAKGRFTISRDNSKNTVYLQMNSLRAEDTATYYCARERAIFSGDFALWGQGTLVTVSS
notes: tested as cleared E. coli lysate; also called DLX2528_2531
B6: in assay [2], the binding result is recorded as “binds”.

B7: DLX2679 (scFv)
scFv: EIVMTQSPSTLSASVGDRVTITCQASQSIGNWLAWYQQKPGKAPKLLIYQASNLASGVPSRFSGSGSGTDFTLTISSLQPDDFATYYCQNAGGATTIAFGQGTKLTVLGGGGGSGGGGSGGGGSGGGGSEVQLVESGGGLVQPGGSLRLSCTVSGFSLSSYAMSWVRQAPGKGLEWVGIIYDSASTYYASWAKGRFTISKDTSKNTVYLQMNSLRAEDTAVYYCARERAIFSGDFDYWGQGTLVTVSS
notes: tested as cleared E. coli lysate; also called DLX2528_2585
For B7, the binding result in assay [2] is recorded as “binds”.

B8: DLX2685 (scFv)
scFv: EIVMTQSPSTLSASVGDRVTITCQASQSISSWLSWYQQKPGKAPKLLIYKASTLASGVPSRFSGSGSGTEFTLTISSLQPDDFATYYCQNAGGGVSIAFGQGTKLTVLGGGGGSGGGGSGGGGSGGGGSEVQLVESGGGNVQPGGSLRLSCTASGFSLSNSAMAWVRQAPGKGLEWVGIIYDSASTYYASWAKGRFTISRDNSKNTVYLQMNSLRAEDTATYYCARERAIFSGDFALWGQGTLVTVSS
notes: tested as cleared E. coli lysate; also called DLX2543_2531
Regarding B8, in assay [2], the binding result is “binds”.

B9: DLX2676 (scFv)
scFv: EIVMTQSPSTLSASVGDRVTITCQASQSIGNWLAWYQQKPGKAPKLLIYQASNLASGVPSRFSGSGSGTDFTLTISSLQPDDFATYYCQNAGGATTIAFGQGTKLTVLGGGGGSGGGGSGGGGSGGGGSEVQLVESGGGNVQPGGSLRLSCTASGFSLSDAAMAWVRQAPGKGLEWVGIIYDSASTFYASWAKGRFTISRDNSKNTLYLQMNSLRAEDTATYYCARERNIFSGDMALWGQGTTVTVSS
notes: tested as cleared E. coli lysate; also called DLX2528_2530
Turning to B9, the binding result in assay [2] is on record as “binds”.

B10: DLX2682 (scFv)
scFv: EIVMTQSPSTLSASVGDRVIITCRASQSIGNWLSWYQQKPGKAPKLLIYRASNLASGVPSRFSGSGSGAEFTLTISSLQPEDFATYYCQNTGGGINIAFGQGTKLTVLGGGGGSGGGGSGGGGSGGGGSEVQLVESGGGLVQPGGSLRLSCTVSGFSLSSYAMSWVRQAPGKGLEWIGIIYDSASTYYASWAKGRFTISKDTSKNTLYLQMNSLRAEDTAVYFCARERQIFSGDMDGWGQGTTVTVSS
notes: tested as cleared E. coli lysate; also called DLX2529_2548
For the molecule B10, in assay [2], the binding result is “binds”.

B11: DLX2683 (scFv)
scFv: EIVMTQSPSTLSASVGDRVIITCRASQSIGNWLSWYQQKPGKAPKLLIYRASNLASGVPSRFSGSGSGAEFTLTISSLQPEDFATYYCQNTGGGINIAFGQGTKLTVLGGGGGSGGGGSGGGGSGGGGSEVQLVESGGGLVQPGGSLRLSCTVSGFSLSSYAMSWVRQAPGKGLEWVGIIYDSASTYYASWAKGRFTISKDTSKNTVYLQMNSLRAEDTAVYYCARERAIFSGDFDYWGQGTLVTVSS
notes: tested as cleared E. coli lysate; also called DLX2529_2585
On to B11, for which the binding result in assay [2] is listed as “binds”.

B12: DLX2687 (scFv)
scFv: EIVMTQSPSTLSASVGDRVTITCQASQSISSWLSWYQQKPGKAPKLLIYKASTLASGVPSRFSGSGSGTEFTLTISSLQPDDFATYYCQNAGGGVSIAFGQGTKLTVLGGGGGSGGGGSGGGGSGGGGSEVQLVESGGGLVQPGGSLRLSCTVSGFSLSSYAMSWVRQAPGKGLEWVGIIYDSASTYYASWAKGRFTISKDTSKNTVYLQMNSLRAEDTAVYYCARERAIFSGDFDYWGQGTLVTVSS
notes: tested as cleared E. coli lysate; also called DLX2543_2585
In the case of B12, the binding result in assay [2] is “binds”.

B13: DLX2695 (scFv)
scFv: ADIVMTQSPSTLSASVGDRVTITCQASQSISSYLSWYQQKPGKAPKLLIYRASTLASGVPSRFSGSGSGAEFTLTISSLQPDDFATYYCQNTGGGINIAFGQGTKLEIKRGGGGSGGGGSGGGGSGGGGSEVQLVESGGGLVQPGGSLRLSCTVSGFSLSSYAMSWVRQAPGKGLEWVGIIYDSASTYYASWAKGRFTISKDTSKNTVYLQMNSLRAEDTAVYYCARERAIFSGDFDYWGQGTLVTVSS
notes: tested as cleared E. coli lysate; also called DLX2547_2585
Turning to B13, in assay [2], the binding result is recorded as “binds”.

B14: DLX2691 (scFv)
scFv: ADIVMTQSPSTLSASVGDRVTITCQASQSISSYLSWYQQKPGKAPKLLIYKASTLASGVPSRFSGSGSGTDFTLTISSLQPEDFATYYCQNAGGGINIAFGQGTKVEIKRGGGGSGGGGSGGGGSGGGGSEVQLVESGGGLVQPGGSLRLSCTVSGFSLSSYAMSWVRQAPGKGLEWVGIIYDSASTYYASWAKGRFTISKDTSKNTVYLQMNSLRAEDTAVYYCARERAIFSGDFDYWGQGTLVTVSS
notes: tested as cleared E. coli lysate; also called DLX2544_2585
Regarding B14, the binding result in assay [2] is on record as “binds”.

B15: DLX2694 (scFv)
scFv: ADIVMTQSPSTLSASVGDRVTITCQASQSISSYLSWYQQKPGKAPKLLIYRASTLASGVPSRFSGSGSGAEFTLTISSLQPDDFATYYCQNTGGGINIAFGQGTKLEIKRGGGGSGGGGSGGGGSGGGGSEVQLVESGGGLVQPGGSLRLSCTVSGFSLSSYAMSWVRQAPGKGLEWIGIIYDSASTYYASWAKGRFTISKDTSKNTLYLQMNSLRAEDTAVYFCARERQIFSGDMDGWGQGTTVTVSS
notes: tested as cleared E. coli lysate; also called DLX2547_2548
For the molecule B15, the binding result in assay [2] is recorded as “binds”.

B16: DLX2680 (scFv)
scFv: EIVMTQSPSTLSASVGDRVIITCRASQSIGNWLSWYQQKPGKAPKLLIYRASNLASGVPSRFSGSGSGAEFTLTISSLQPEDFATYYCQNTGGGINIAFGQGTKLTVLGGGGGSGGGGSGGGGSGGGGSEVQLVESGGGNVQPGGSLRLSCTASGFSLSDAAMAWVRQAPGKGLEWVGIIYDSASTFYASWAKGRFTISRDNSKNTLYLQMNSLRAEDTATYYCARERNIFSGDMALWGQGTTVTVSS
notes: tested as cleared E. coli lysate; also called DLX2529_2530
Turning to B16, in assay [2], the binding result is on record as “binds”.

B17: DLX2692 (scFv)
scFv: ADIVMTQSPSTLSASVGDRVTITCQASQSISSYLSWYQQKPGKAPKLLIYRASTLASGVPSRFSGSGSGAEFTLTISSLQPDDFATYYCQNTGGGINIAFGQGTKLEIKRGGGGSGGGGSGGGGSGGGGSEVQLVESGGGNVQPGGSLRLSCTASGFSLSDAAMAWVRQAPGKGLEWVGIIYDSASTFYASWAKGRFTISRDNSKNTLYLQMNSLRAEDTATYYCARERNIFSGDMALWGQGTTVTVSS
notes: tested as cleared E. coli lysate; also called DLX2547_2530
As for B17, the binding result in assay [2] is “binds”.

B18: DLX2678 (scFv)
scFv: EIVMTQSPSTLSASVGDRVTITCQASQSIGNWLAWYQQKPGKAPKLLIYQASNLASGVPSRFSGSGSGTDFTLTISSLQPDDFATYYCQNAGGATTIAFGQGTKLTVLGGGGGSGGGGSGGGGSGGGGSEVQLVESGGGLVQPGGSLRLSCTVSGFSLSSYAMSWVRQAPGKGLEWIGIIYDSASTYYASWAKGRFTISKDTSKNTLYLQMNSLRAEDTAVYFCARERQIFSGDMDGWGQGTTVTVSS
notes: tested as cleared E. coli lysate; also called DLX2528_2548
B18: in assay [2], the binding result is “binds”.
